Measurements taken from the supplement of paper PMC10567573.
± gives the standard deviation.

Assay: protein stability index of a GFP-peptide fusion (GPS, HEK-293T) (PSI 1-6); higher = more stable
Conditions: c terminus: a fixed tail appended
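Also: 24-mer peptide tiles fused after GFP, lentivirally expressed, FACS-sorted into six equal bins by GFP/DsRed ratio, decoded by Illumina sequencing, PSI is the read-weighted mean bin number.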

Row | Sequence | protein stability index (treatment: DMSO) | protein stability index (treatment: MLN4924 1 uM, 8 h)
1 | QHESGQSSSRGSSHCDSPSPQEDG [BNIP3L] | 5.62 ± 0.36 | 5.5 ± 0.16
2 | ICPSTFACAQLATGAACRLVEAVL [HDAC6] | 2.17 ± 0.32 | 2.14 ± 0.049
3 | VLYPVPLESYEDIHGTLHLERLAY [PRAME] | 2.31 ± 0.23 | 2.38 ± 0.36
4 | HYCNSSTDRRVLLMFLDICSELNK [SPACA9] | 2.18 ± 0.35 | 2.21 ± 0.29
5 | VTAGCGFGKDFRKGLLKKGACYGD [PPTC7] | 2.79 ± 0.56 | 2.65 ± 0.11
6 | EKTQDDLMKHQTNISELKRTFLET [EPB41L3] | 4.18 ± 0.68 | 4.2 ± 0.31
7 | QNLVYYRFHRARWGLEEEDFQPRE [P3H4] | 2.38 ± 0.17 | 2.25 ± 0.27
8 | VAKCLIGVNYPKPMVNHAEASRLN [CRY1] | 2.5 ± 0.14 | 2.46 ± 0.38
9 | VLSVSKILHIPQVTKLCVQFLNDQ [KLHL14] | 2.52 ± 0.48 | 2.29 ± 0.35
10 | PPRSDTIANYELVYKDGEHGEEQR [PTPRD] | 5.48 ± 0.21 | 5.57 ± 0.14
11 | WAGFMVLLMIPWGSAAKLVCYFTN [CHIT1] | 2.69 ± 0.069 | 2.11 ± 0.13
12 | KLLKQMRILWKKIQENQRNLYEEG [TRIM43] | 1.88 ± 0.61 | 1.85 ± 0.081
13 | EKIQQDADSVITVGRGEVVTVRVP [ACBD3] | 4.55 ± 0.16 | 4.63 ± 0.14
14 | VLAGAAEEGFMTAELAGVIKRLWK [GNAI1] | 2.38 ± 0.34 | 2.45 ± 0.057
15 | AIAKQALKKPIKGKQAPRKKAQGK [KMT5A] | – | 4.02 ± 0.17
16 | SFVVARYFPAGNVVNEGFFEENVL [GLIPR2] | 2.11 ± 0.55 | 2.33 ± 0.24
17 | LKDHFSHLLGIPHSVLQIRYSGKI [IQUB] | 2.19 ± 0.38 | 2.06 ± 0.39

Row | Sequence | protein stability index (treatment: DMSO) | protein stability index (treatment: MLN4924 1 uM, 8 h)
18 | YSLFVGLFLFGYKFSGLYILSFTV [SLC35F2] | 3.24 ± 0.39 | 3.07 ± 0.39
19 | PINYQGLRFSGVNDTDFRVYLLGN [POMT2] | 2.27 ± 0.23 | 2.46 ± 0.14
20 | GARSKGQCPEPPIVVHCSAGIGRT [PTPN9] | 3.46 ± 0.32 | 3.77 ± 0.46
21 | RVPLGRLELLEEVLALGLRTDVGI [RSAD1] | 2.1 ± 0.44 | 2.15 ± 0.31
22 | HPTYEEKLKLVALHKQVLMGPYNP [ACBD3] | 2.6 ± 0.34 | 2.69 ± 0.37
23 | SAESQGLDGAGLMGFVPHNGSLYG [ADAMTSL2] | – | 3.47 ± 1.6
24 | KAQLLARVNKEHEHKLKVVRDQIS [TRIM9] | 3.34 ± 0.27 | 3.42 ± 0.075
25 | LKPSWFDFGFAILGFAYAKEDKIM [MIA2] | 3.06 ± 0.61 | 2.34 ± 0.53
26 | LLFAGSSLASQVHAAAVNGDKGAL [INVS] | 2.61 ± 0.34 | 2.76 ± 0.21
27 | FDKKDRRALHWAAYMGHLDVVALL [ANKRD44] | 2.61 ± 0.82 | 2.24 ± 0.22
28 | MAAAAEERMAEEGGGGQGDGGSSL [FBXO28] | 5.45 ± 0.29 | 5.57 ± 0.33
29 | EIFQKPFQTLMFLVRDWSFPYEYS [ATL3] | 2.73 ± 0.56 | 3.52 ± 0.089
30 | FTQPQQTSFALERNLRTQQEIEDK [C8orf76] | 4.87 ± 0.37 | 4.9 ± 0.24
31 | IWTAHYDPGHCFAESRELPVRCAG [ALG2] | 2.38 ± 0.32 | 2.4 ± 0.24
32 | YISPELCEGKPYNQKSDIWALGCV [NEK8] | 2.19 ± 0.41 | 2.01 ± 0.19
33 | PVPEQSALCQGLYFHINQTLREAH [FAM104A] | 2.46 ± 0.21 | 2.77 ± 0.28
